According to patent US20230174648A1 (published 2023):

Assays:
[1] = molecular target: T1, cynomolgus monkey SIRPα, extracellular domain (cynomolgus monkey, UniProt A0A2K5VYQ9 31-372); experiment: SPR (BIACORE), antibody captured, monomeric SIRPα as analyte
T1 construct: extracellular domain; Monomeric protein in SPR; also called Cyno SIRPα; monomeric cynomolgus monkey SIRPα

[2] = molecular target: T2, human SIRPα V1, extracellular domain (human, UniProt P78324 31-373); experiment: SPR (BIACORE), antibody captured on chip, monomeric SIRPα ECD as analyte, 1:1 model
T2 construct: also called hSIRPα V1; monomeric human SIRPα
Experimental: (§1) The affinities of these SIRPα antibodies were determined using surface plasmon resonance. The SIRPα antibodies were flowed onto a chip and captured by an anti-human IgG covalently coupled to the surface of the chip. A three-point titration of the extracellular binding domain of hSIRPα was performed per the manufacturer’s recommended protocols.

[3] = molecular target: T3, human SIRPα V1-His monomer protein (human, UniProt P78324 31-373); experiment: BLI (ForteBio Octet), antibody on AMC biosensor, SIRP-His monomer 100/33.3/11.1 nM, 1:1 model, averaged KD
T3 construct: SIRP-His monomer used as analyte in BLI (Octet); also called SIRP-His; monomeric human SIRPα; not shown: His tag

[4] = molecular target: T4, human SIRPβ1-His monomer protein (human, UniProt O00241 30-371); experiment: as above
T4 construct: also called SIRP-His; monomeric human SIRPβ1; not shown: His tag

[5] = molecular target: T1, cynomolgus monkey SIRPα, extracellular …; experiment: SPR (BIACORE), antibody captured on chip, monomeric SIRPα as analyte, 1:1 model
Experimental: as §1

[6] = molecular target: T1, cynomolgus monkey SIRPα, extracellular …; experiment: SPR (BIACORE), antibody captured by anti-human IgG, monomeric SIRPα as analyte, 1:1 model
Experimental: as §1

[7] = molecular target: T2, human SIRPα V1, extracellular domain; experiment: SPR (BIACORE), antibody captured by anti-human IgG, monomeric SIRPα ECD as analyte, 1:1 model
Experimental: as §1

[8] = molecular target: T5, human SIRPα V2, extracellular domain (human, UniProt P78324 31-373); experiment: as above
T5 construct: also called hSIRPα V2
Experimental: as §1

T4 sequence (O00241 30-371 limits assumed): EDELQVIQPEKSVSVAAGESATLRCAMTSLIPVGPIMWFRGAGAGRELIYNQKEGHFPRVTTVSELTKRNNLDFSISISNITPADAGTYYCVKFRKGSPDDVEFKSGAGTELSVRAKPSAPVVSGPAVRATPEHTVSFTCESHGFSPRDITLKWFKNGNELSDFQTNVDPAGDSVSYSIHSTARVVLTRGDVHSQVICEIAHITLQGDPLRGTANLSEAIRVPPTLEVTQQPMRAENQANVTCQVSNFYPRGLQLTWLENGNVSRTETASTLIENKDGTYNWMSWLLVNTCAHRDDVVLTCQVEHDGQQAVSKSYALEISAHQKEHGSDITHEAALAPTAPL

Kd [3] [nM]	Kd [4] [nM]	Binder	also measured
11	3620	Antibody 2 (antibody, V domains shown, Human variable region with rat IgG2b Fc) VH: QVQLVQSGAEVKKPGASVKVSCKASGYTFTGYYIFWMRQAPGQGLEWMGWINPNSGGTDYAQKFQGRVTMTMDTSISTAYMELSRLRSDDTAVYYCAREDCTSISCSFDYWGQGTLVTVSS VL: not shown	binding result [1]: no binding; Kd [2]: 89.5 nM
1.21	0.456	Antibody 6 (antibody, rat IgG2b, V domains shown, Human variable region with rat IgG2b Fc) VH: EVQLLESGGGLVQPGGSLRLSCAASGFTLSSYAMSWVRQAPGKGLEWVSISSGSGANTYNADSLKGRFTISRDNSKNTLFLQMNSLRAEDTAVYYCARLRFFDWFDYWGQGALVTVSS VL: QAVVTQESALTTSPGETVTLTCRSSTGAVTTSNYANWVQEKPDHLFTGLIGGTNNRTPGVPARFSGSLIGDKAALTITGAQTEDEAIYFCALWYSNHWVFGGGTKLTVL	Kd [5]: 56.1 nM; Kd [2]: 4.1 nM
		Antibody 27 (antibody, V domains shown) VH: EVQLLESGGGLVQPGGSLRLSCAASGFTLSSYAMSWVRQAPGKGLEWVSISSGSGANTYNADSLKGRFTISRDNSKNTLFLQMNSLRAEDTAVYYCARLRFFDWFDYWGQGALVTVSS VL: QAVVTQESALTTSPGETVTLTCRSSTGAVTTSNYANWVQEKPDHLFTGLIGGTNNRTPGVPARFSGSLIGDKAALTITGAQTEDEAIYFCALWYSNHWVFGGGTKLTVL	Kd [6]: 30.6 nM; Kd [7]: 2 nM
		Antibody 22 (antibody, V domains shown, Same variable domains as Antibody 6 with human IgG1 Fc) VH: EVQLLESGGGLVQPGGSLRLSCAASGFTLSSYAMSWVRQAPGKGLEWVSISSGSGANTYNADSLKGRFTISRDNSKNTLFLQMNSLRAEDTAVYYCARLRFFDWFDYWGQGALVTVSS VL: QAVVTQESALTTSPGETVTLTCRSSTGAVTTSNYANWVQEKPDHLFTGLIGGTNNRTPGVPARFSGSLIGDKAALTITGAQTEDEAIYFCALWYSNHWVFGGGTKLTVL	Kd [6]: 35.5 nM; Kd [7]: 2.59 nM; Kd [8]: 11.5 nM
3.79	75.9	Antibody 19 (antibody, mouse IgG1, V domains shown, Mouse IgG1 Fc) VH: QVQLQQSGAELVRPGASVTLSCKASGYTFTDYEMHWVKQTPVHGLEWIGAIDPETGGTAYNQKFKGKATLTADKSSSTAYMELRSLTSEDSAVYYCTGITRFAYWGQGTLVTVSA VL: SIVMTQTPKFLLVSAGDRVTITCKASQSVSNDVAWYQQKPGQSPKLLIYYASNRYTGVPDRFTGSGYGTDFTFTISTVQAEDLAVYFCQQDYSSPWTFGGGTKLEIK	
206		Antibody 17 (antibody, mouse IgG2a, V domains shown, Mouse IgG2a Fc) VH: EVQVVESGGGLVKPGGSLKISCAASGFAFSSYDMSWVRQTPEKRLEWVAYISSGGGSIYYAETVKGRFTISRDNAKNTLYLQMSSLKSEDTAMYYCVRHGYHEYFDVWGAGTTVTVSS VL: DVLMTQTPLSLPVSLGDQASISCRSSQSIVHSNGNTYLEWYLQKPGQSPKLLIYKVSNRFSGVPDRFSGSGSGTDFTLKISRVEAEDLGVYFCFQGSHFPYTFGGGTKLEIK	
17.3		Antibody 5 (antibody, rat IgG2b, V domains shown, Human variable region with rat IgG2b Fc) VH: QVQLVESGGGVVQPGRSLRLSCAASGFTFSNYGMHWVRQAPGKGPEWVAVIWYDGSYKYYGDSVKGRFTISRDNSKNTLYLQMNSLRAEDTAVYYCVRESVGYSSGWSFDYWGQGILVTVSS VL: DIQMTQSPSTLSASVGDRVTITCRASQSISSWLAWYQQKPGKVPKLLIYKASSLKTGVPSRFSGNGSGTEFTLTISSLQPDDFATYYCQQYNSYSWTFGQGTKVEIK	
1.21	83.9	Antibody 16 (antibody, mouse IgG2a, V domains shown, Mouse IgG2a Fc) VH: QVQLQQSGAELAKPGASVKMSCKASGYTFTSYWMHWVKQRPGQGLEWIGYIDPSTGYTFHNQKFKDKATLTADKSSTTAYMQLRSLTSEDSAVYYCARRDYGSSFYAMDYWGHGTSITVSS VL: not shown	
